Test results from patent US20060233785A1, “Immunointeractive molecules and uses thereof” (priority 2001, published 2006).
Entries after “also recorded” stand apart in the source; their conditions may differ. Like-named read-outs stand apart in the source and are kept apart here.

Key:
Hev b 6 specific IgE = experiment: ELISA for Hev b 6 specific human IgE (Examples 8 and 9); format: binding; settings: for frequency of IgE reactivity in non-latex allergic subjects: 18 non-latex allergic subjects, compared with 6%; for latex allergic subjects positive for IgE binding by ELISA (positive/total) / latex allergic subjects positive for IgE binding by ELISA: 31 latex allergic subjects; for latex allergic subjects positive for IgE binding by ELISA: cut-off mean + 2 SD of non-latex allergic; for IgE binding by ELISA: sera of latex allergic, Hev b 6 sensitised subjects
Protocol: (§1) FIG. 6 is an image of sulphonation abolishing the IgE reactivity of rHev b 6. rHev b 6 (A) and sulphonated rHev b 6 (B) were resolved by 16% SDS-PAGE under non-reducing conditions. Gels were either stained with Coomassie Brilliant Blue (1) or transferred to nitrocellulose. Strips with transferred protein were incubated with the Hev b 6-specific mAb 1A5.4 and binding detected (2). Strips with transferred protein were also incubated with sera from two latex allergic, Hev b 6 sensitized subjects (3 and 4) and one non-latex-allergic, atopic subject (5). The presence or absence of IgE binding was then detected. […] Plates were coated with rHev b 6 and sulphonated rHev b 6 and the presence or absence of IgE-binding detected. As a positive control the Hev b 6-specific mAb 1A5 was used. NB indicates no binding of IgE was detected.
(§2) FIG. 7 is a graphical representation of the disruption of the first disulphide bond of Hev b 6 markedly decreasing IgE binding to rHev b6. IgE from the sera of 31 latex allergic and 18 non-latex allergic subjects assayed by ELISA for the ability to bind rHev b 6 (no substitution) and mutant rHev b 6 (cysteine to alanine substitution at amino acid 3). Plates were coated with both rHev b 6 and mutant rHev b 6 and incubated with subjects' sera (A) Population ELISA. Individual dots represent individual readings. The thin horizontal lines indicated the cut-off for positive for IgE binding to mutant rHev b 6 and rHev b 6, calculated as the mean of the readings for non-latex allergic subjects for each antigen plus 2 SD. The thick horizontal lines indicate the mean of each group. (B) Direct comparison of IgE and mAb binding to rHev b 6 and mutant rHev b 6. A1 to 11, latex-allergic subjects. N1, non-latex allergic subject. Dotted line indicates the cut-off for positive for IgE binding for mutant rHev b 6. The solid line indicates the cut-off for positive for IgE binding for rHev b 6.
(§3) Patient serum samples were tested for Hev b 6 specific IgE using our standard ELISA protocol (Sutherland et al. 2002, supra) with rabbit anti-human IgE (Dako, Denmark) at 1 in 1000 dilution followed by swine anti-rabbit IgG-HRP conjugate (Promega) at I in 1000 dilution. For the Hev b 6-specific mAb 1A5.4 (IgG1/kappa isotype) binding was detected using sheep anti-mouse Ig-HRP (Silenus) at 1 in 1000 dilution.

[1] = system: Hev b 6-specific mAb 1A5.4; experiment: ELISA for Hev b 6-specific mAb binding to rHev b 6 forms; set-up: species or system mouse
Protocol: as §1, §2, §3

basophils = experiment: Basophil Activation Test; format: cell-based, human; settings: for activated basophils / basophil activation above background / basophils activated (above background): 10 μg/ml; for basophil activation above background levels / basophil activation over background: latex allergic subjects; for basophil activation above background levels: 0.1 μg/ml (FIGS. 9B and C); for basophil activation over background: 1 μg/ml; for basophil activation: non-latex allergic control subject N2; for basophil activation above background: one subject (FIG. 9B); for basophils activated (above background): latex allergic subjects (FIGS. 9B, C and D)
Protocol: FIG. 9 is a graphical representation of the basophil Activation Test on a latex allergic donor. Whole blood from a latex allergic, Hev b 6 sensitized subject was incubated with latex allergens. The cells were stained with FITC labelled anti-human IgE polyclonal antibodies and a PE labelled monoclonal anti-human CD63 antibody. Cells were analysed by flow cytometry defining basophils on the basis of scatter (A) and high IgE staining (B). The percentage of activated basophils expressing CD63 was determined (C).
The Basophil Activation Test was performed on whole blood from (A) non-latex allergic subject N2; (B) latex-allergic subject A7; (C) latex-allergic subject A8 and (D) latex-allergic subject A10. Antigens: latex glove extract (GE), hevein peptide (hevein), rHev b 6, mutant rHev b 6 (MU rHev b 6), sulphonated rHev b 6, (sul. rHev b 6), rHev b 5, KLH and house dust mite extract (HDM). All allergens were used at 10 μg/ml except for rHev b 6 and mutant rHev b 6 which were used at 0.1, 1 and 10 μg/ml. The cut-off for positive was set at the level of activated basophils after incubation in stimulation buffer alone (no antigen, horizontal line). A plus symbol (+) indicates antigen to which a subject has either a positive clinical history of allergy and/or a positive reading on an allergen-specific IgE ELISA.
A basophil activation assay based on flow cytometry was used to quantify the activation of basophils after incubation with various allergens. This assay was modified from Paris-Kohler A, Demoly P, Persi L, Lebel B, Bousquet J, Arnoux B. In vitro diagnosis of cypress pollen allergy by using cytofluorimetric analysis of basophils (Basotest). J Allergy Clin Immunol 2000; 105:339-45. Whole blood was collected in 6 ml heparinised vacutainers (Greiner). 100 μl aliquots were preincubated with stimulation buffer (20 mM Hepes, 133 mM NaCl, 5 mM KCl, 7 mM CaCl2, 3.5 mM MgCl2, 1 mg/ml BSA, 20 μl/ml heparin, pH 7.4) containing 2 ng/ml IL-3, for 10 min at 37° C., to increase the sensitivity of the assay. Samples were incubated for 20 min at 37° C. with 100 μl of stimulation buffer alone or stimulation buffer containing either rabbit anti-human IgE (Dako) at 1 in 500 dilution, 2 μM N-fMLP (Sigma, Mo, USA), crude allergen extracts, recombinant latex allergens or Keyhole Limpet Haemocyanin (KLH) (Sigma, Mo, USA). Basophil activation was stopped by incubating at 4° C. for 5 min. Normal goat serum (10 μl) was added to each tube to block non-specific binding of the detection antibody (goat anti-human IgE-FITC) and incubated for 10 min at 4° C. Samples were incubated with goat anti-human IgE-FITC (Caltag, Birmingham, Calif.) at a dilution of 1 in 2.5, and mouse anti-human CD63-R-Phycoerythrin (PE; Caltag, Birmingham, Calif.) at a dilution of 1 in 20, in a 20 μl volume of wash buffer (20 mM HEPES, 133 mM NaCl, 5 mM KCl, 0.27 mM EDTA, pH7.3). RBC were lysed by the addition of 2 ml FACS lysing solution (39 mM NH4Cl, 2.5 mM KHCO3, 0.2 mM EDTA) and incubation for 10 min at room temperature. Cells were centrifuged (250 g, 5 min at 4° C.), resuspended in 3 ml wash buffer, and centrifuged as before. Pellets were resuspended in 200 μl wash buffer, and analysed by flow cytometry (FACScalibur, Becton Dickinson) within 2 h of the experiment. 7AAD (Sigma, Mo, USA) was added to the samples 5 min prior to FACS analysis.

Molecule	frequency of IgE reactivity in non-latex allergic subjects (Hev b 6 specific IgE)	latex allergic subjects positive for IgE binding by ELISA (positive/total) (Hev b 6 specific IgE)	latex allergic subjects positive for IgE binding by ELISA (Hev b 6 specific IgE)	IgE binding by ELISA (Hev b 6 specific IgE)	Hev b 6-specific mAb binding by ELISA [1]	Hev b 6-specific mAb binding by ELISA ([1]; listed as rHevb 6)	activated basophils (basophils; another patient (FIG. 9C))	basophil activation above background levels (basophils)	basophil activation over background (basophils)	basophil activation (basophils)	basophil activation above background (basophils)	activated basophils (basophils; third patient)	basophils activated (above background) (basophils)
rHev b 6: recombinant Hev b 6 (prohevein) expressed in E. coli from pPROEX-HTa with 6-His tag (protein, left off: small tags and cut ends, recombinant Hev b 6 (prohevein) expressed in E. coli from pPROEX-HTa with 6-His tag) EQCGRQAGGKLCPNNLCCSQWGWCGSTDEYCSPDHNCQSNCKDSGEGVGGGSASNVLATYHLYNSQDHGWDLNAASAYCSTWDANKPYSWRSKYGWTAFCGPVGAHGQSSCGKCLSVTNTGTGAKTTVRIVDQCSNGGLDLDVNVFRQLDTDGKGYERGHITVNYQFVDCGDSFNPLFSVMKSSVIN	same frequency	21/31	68%	bound	bound to a similar extent	comparable reactivity	60%	30-50%	50-60%	negligible	60%	70%	
sulphonated rHev b 6: purified rHev b 6 sulphonated in sulphonation buffer to improve solubility (protein, left off: small tags and cut ends) EQCGRQAGGKLCPNNLCCSQWGWCGSTDEYCSPDHNCQSNCKDSGEGVGGGSASNVLATYHLYNSQDHGWDLNAASAYCSTWDANKPYSWRSKYGWTAFCGPVGAHGQSSCGKCLSVTNTGTGAKTTVRIVDQCSNGGLDLDVNVFRQLDTDGKGYERGHITVNYQFVDCGDSFNPLFSVMKSSVIN				no detectable binding; also recorded: lack of reactivity	bound to a similar extent								less than 5%
mutant rHev b 6: rHev b 6 with cysteine to alanine substitution at amino acid 3 of the mature protein (protein, left off: small tags and cut ends, rHev b 6 with cysteine to alanine substitution at amino acid 3 of the mature protein) EQAGRQAGGKLCPNNLCCSQWGWCGSTDEYCSPDHNCQSNCKDSGEGVGGGSASNVLATYHLYNSQDHGWDLNAASAYCSTWDANKPYSWRSKYGWTAFCGPVGAHGQSSCGKCLSVTNTGTGAKTTVRIVDQCSNGGLDLDVNVFRQLDTDGKGYERGHITVNYQFVDCGDSFNPLFSVMKSSVIN	same frequency	2/31	6%		comparable reactivity		40%	no activation above background levels	5-10%	negligible	15%	no activation	up to 49%
